This experiment addresses T1, alpha9 integrin on transfected SW480 colon carcinoma cells (UniProt Q13797 30-1035; P05556 21-798).
T1 construct: whole, on cells; also called α9 integrin; alpha9 beta1 integrin
Put plainly: adhesion of transfected SW480 cells to wells coated with tenascin-W. The source says: IDG tripeptide motifs have been reported to be the recognition sequence for alpha9 beta1 integrin (Yokosaki et al., 1998). Since mouse tenascin-W contains three IDG motifs we investigated whether α9 integrin could be the receptor for tenascin-W. We plated SW480 colon carcinoma cells transfected either with an empty vector or with the vector containing the cDNA for α9 integrin (Yokosaki et al. J Biol. Chem. 1996 Sep. 27;271(39):24144-50) on tenascin-W coated wells.

Consider one molecule from patent publication US20050202430A1 (Novartis, published 2005).

T1 sequence (Q13797 30-1035, chain 1 of 2): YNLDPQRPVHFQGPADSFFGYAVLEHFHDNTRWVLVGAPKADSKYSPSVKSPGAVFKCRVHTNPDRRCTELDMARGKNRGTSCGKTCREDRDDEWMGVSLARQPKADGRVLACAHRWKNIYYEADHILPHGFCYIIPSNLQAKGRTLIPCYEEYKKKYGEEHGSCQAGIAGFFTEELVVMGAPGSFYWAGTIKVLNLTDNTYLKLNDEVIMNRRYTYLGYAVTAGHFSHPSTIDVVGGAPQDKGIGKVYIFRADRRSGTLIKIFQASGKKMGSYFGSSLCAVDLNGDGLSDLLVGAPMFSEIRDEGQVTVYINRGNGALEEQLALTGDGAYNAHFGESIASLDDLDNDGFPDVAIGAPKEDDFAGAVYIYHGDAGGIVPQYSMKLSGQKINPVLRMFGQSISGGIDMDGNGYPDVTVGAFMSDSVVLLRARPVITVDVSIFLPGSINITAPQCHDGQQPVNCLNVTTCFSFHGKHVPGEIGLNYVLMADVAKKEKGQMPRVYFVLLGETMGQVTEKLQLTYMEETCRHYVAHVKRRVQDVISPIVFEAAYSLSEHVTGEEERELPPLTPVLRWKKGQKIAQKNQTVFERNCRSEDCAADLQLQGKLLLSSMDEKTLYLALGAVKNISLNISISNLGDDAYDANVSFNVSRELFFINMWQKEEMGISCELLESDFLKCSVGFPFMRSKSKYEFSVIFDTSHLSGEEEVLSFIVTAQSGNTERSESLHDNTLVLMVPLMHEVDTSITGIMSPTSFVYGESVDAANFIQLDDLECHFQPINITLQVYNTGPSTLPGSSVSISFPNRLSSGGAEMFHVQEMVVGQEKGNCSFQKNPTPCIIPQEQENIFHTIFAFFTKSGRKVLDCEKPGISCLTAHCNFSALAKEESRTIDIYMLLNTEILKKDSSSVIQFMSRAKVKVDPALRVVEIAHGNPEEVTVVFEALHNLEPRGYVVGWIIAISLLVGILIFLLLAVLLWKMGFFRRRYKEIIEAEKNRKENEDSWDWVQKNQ
T1 sequence (P05556 21-798, chain 2 of 2): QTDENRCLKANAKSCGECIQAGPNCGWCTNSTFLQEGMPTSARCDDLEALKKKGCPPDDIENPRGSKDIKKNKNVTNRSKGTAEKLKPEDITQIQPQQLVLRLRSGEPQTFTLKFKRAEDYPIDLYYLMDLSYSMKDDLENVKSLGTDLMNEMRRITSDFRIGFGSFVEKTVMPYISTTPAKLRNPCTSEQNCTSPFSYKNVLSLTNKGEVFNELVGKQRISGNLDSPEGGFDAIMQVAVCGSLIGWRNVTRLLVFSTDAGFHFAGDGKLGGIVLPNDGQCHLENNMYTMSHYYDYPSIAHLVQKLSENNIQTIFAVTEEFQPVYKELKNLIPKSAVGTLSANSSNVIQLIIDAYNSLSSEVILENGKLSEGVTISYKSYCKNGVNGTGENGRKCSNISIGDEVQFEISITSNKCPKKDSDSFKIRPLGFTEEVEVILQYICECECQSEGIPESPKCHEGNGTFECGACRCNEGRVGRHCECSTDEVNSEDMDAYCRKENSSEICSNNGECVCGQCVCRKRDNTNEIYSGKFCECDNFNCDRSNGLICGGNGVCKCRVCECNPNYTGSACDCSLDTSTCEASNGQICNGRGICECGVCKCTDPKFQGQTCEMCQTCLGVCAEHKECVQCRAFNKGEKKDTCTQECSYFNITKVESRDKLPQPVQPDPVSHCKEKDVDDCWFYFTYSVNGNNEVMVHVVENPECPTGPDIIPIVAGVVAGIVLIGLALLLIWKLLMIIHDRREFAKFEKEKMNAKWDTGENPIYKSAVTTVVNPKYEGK

B1: purified full-length recombinant mouse tenascin-W (C-terminal 6xHis-tag, secreted from HEK 293 cells) (ligand)
chain: TPESPGCSNKEQQVTVSHTYKIDVPKSALVQVETDPQSLSDDGTSLLAPGEDGEEQNIIFRHNIRLQTPQKNCDLADSVQDLLARMKKLEEEMAELKEQCNTNRCCQGAADLSRHCSGHGTFLPETCSCHCDQGWEGADCDQPTCPGACNGHGRCVDGQCVCDAPYVGVDCAYAACPQDCSGHGVCVQGVCQCHEDFTAEDCSEQRCPGDCSGNGFCDTGECYCEMGFTGPDCSQVVAPQGLQLLKSTENSLLVSWEPSSEVDYYLLSYYPLGKEQATKQVRVPKEQHTYDITGLLPGTKYIVTLRNVKKDISSSPQHLLATTDLAVLGTAWVNEETETSLDVEWENPLTEVDYYKLRYGPLTGQEVTEVTVPKSRDPKSRYDITGLQPGTEYKITVVPIRGDLEGKPILLNGRTEIDGPTNVVTNQVTEDTASVSWDPVRADIDKYVVRYIAPDGETKEKAVPKDQSSTVLTGLKPGEAYKVFVWAERGNQGSKKADTKALTEIDSPENLVTDRVTENSLSVSWDPVEADIDRYVVSYTSVDGETKQVPVKKDQRSTVLTGLSPGVEYKVYVWAEKGDRESKKANTKAPTDIDSPKNLVTDQVTENTLSVSWDPVQANIDRYMVSYTSADGETREVPVPKEKSSTVLTGLRPGVEYKVHVWAQKGTQESRKANTKAPTDIDGPKNLVTDQVTETTLSVSWDPVEADIDRYMVRYTSPDGETKEVPVSKDKSSTVLRGLRPGVEYKVDVWAQKGAQDSRKANTKAPTDIDSPKNLVTEQVAESTATVSWDPVEADIDRYVVRYTSADGETREIPVRKEKSSTVLTGLRPGVEYTVQVWAQKGARESKKAKTKAPTEIDSPKNLVTNRVTENTATISWDPVRANIDRYMVRYTSADGETKEIPVSKDQSNTILTGLKPGMEYTIHVWAQKGARESKKADTKALTEIDPPRNLRPFGVTHSGGVLTWLPPSAQIDGYILTYQFPNGTVKGVELPRGQQRFELQDLEQGVTYPVSLVAFKGNQRSRTVSTTLSTVDARFPHPSDCSQVQQNTNAASGLYTIYLNGDASRPMQVYCDMDTDGGGWIVFQRRNTGQLDFFKRWRSYVEGFGDPMKEFWLGLDKLHNLTTGTTTRYEVRADLQTFNESAYAVYDFFQVASSKERYKLSVGKYRGTAGDALTYHNGWKFTTFDRDSDIALSNCALTHHGGWWYKNCHLANPNGKYGETKHSEGVNWEPWKGHEFSIPYVELKIRPFGYSRDRFSGRKKRSIGKARMFHHHHHH
notes: also called full length mouse tenascin-W protein; purified tenascin-W
For the molecule B1, the binding result is “no binding”.
